Assay results: article PMC12273628, “In vitro reconstitution of a minimal human centrosome scaffold capable of forming and clustering microtubule asters” (Journal of Cell Science, 2025)

Experiments:
[1] = molecular target: GFP::CDK5RAP2 isoform B, full length, wild type (assembled into micron-scale scaffolds with anti-CM2 IgM) (human) (UniProt Q96SN8); experiment: partitioning into in vitro scaffolds (confocal fluorescence microscopy); 4-component asters: 167 nM GFP::CDK5RAP2, 33 nM mBFP::γ-TuRCs, 33 nM mCherry::HSET, 13 µM HiLyte-647-labeled α/β-tubulin; 50 mM KCl, 25 mM HEPES pH 7.4, IgM+; compared with 3-component reactions without HSET
Sequence of GFP::CDK5RAP2 isoform B, full length, wild type (assembled into micron-scale scaffolds with anti-CM2 IgM) (human) (Q96SN8 other isoform, or with tags, fused parts or gaps): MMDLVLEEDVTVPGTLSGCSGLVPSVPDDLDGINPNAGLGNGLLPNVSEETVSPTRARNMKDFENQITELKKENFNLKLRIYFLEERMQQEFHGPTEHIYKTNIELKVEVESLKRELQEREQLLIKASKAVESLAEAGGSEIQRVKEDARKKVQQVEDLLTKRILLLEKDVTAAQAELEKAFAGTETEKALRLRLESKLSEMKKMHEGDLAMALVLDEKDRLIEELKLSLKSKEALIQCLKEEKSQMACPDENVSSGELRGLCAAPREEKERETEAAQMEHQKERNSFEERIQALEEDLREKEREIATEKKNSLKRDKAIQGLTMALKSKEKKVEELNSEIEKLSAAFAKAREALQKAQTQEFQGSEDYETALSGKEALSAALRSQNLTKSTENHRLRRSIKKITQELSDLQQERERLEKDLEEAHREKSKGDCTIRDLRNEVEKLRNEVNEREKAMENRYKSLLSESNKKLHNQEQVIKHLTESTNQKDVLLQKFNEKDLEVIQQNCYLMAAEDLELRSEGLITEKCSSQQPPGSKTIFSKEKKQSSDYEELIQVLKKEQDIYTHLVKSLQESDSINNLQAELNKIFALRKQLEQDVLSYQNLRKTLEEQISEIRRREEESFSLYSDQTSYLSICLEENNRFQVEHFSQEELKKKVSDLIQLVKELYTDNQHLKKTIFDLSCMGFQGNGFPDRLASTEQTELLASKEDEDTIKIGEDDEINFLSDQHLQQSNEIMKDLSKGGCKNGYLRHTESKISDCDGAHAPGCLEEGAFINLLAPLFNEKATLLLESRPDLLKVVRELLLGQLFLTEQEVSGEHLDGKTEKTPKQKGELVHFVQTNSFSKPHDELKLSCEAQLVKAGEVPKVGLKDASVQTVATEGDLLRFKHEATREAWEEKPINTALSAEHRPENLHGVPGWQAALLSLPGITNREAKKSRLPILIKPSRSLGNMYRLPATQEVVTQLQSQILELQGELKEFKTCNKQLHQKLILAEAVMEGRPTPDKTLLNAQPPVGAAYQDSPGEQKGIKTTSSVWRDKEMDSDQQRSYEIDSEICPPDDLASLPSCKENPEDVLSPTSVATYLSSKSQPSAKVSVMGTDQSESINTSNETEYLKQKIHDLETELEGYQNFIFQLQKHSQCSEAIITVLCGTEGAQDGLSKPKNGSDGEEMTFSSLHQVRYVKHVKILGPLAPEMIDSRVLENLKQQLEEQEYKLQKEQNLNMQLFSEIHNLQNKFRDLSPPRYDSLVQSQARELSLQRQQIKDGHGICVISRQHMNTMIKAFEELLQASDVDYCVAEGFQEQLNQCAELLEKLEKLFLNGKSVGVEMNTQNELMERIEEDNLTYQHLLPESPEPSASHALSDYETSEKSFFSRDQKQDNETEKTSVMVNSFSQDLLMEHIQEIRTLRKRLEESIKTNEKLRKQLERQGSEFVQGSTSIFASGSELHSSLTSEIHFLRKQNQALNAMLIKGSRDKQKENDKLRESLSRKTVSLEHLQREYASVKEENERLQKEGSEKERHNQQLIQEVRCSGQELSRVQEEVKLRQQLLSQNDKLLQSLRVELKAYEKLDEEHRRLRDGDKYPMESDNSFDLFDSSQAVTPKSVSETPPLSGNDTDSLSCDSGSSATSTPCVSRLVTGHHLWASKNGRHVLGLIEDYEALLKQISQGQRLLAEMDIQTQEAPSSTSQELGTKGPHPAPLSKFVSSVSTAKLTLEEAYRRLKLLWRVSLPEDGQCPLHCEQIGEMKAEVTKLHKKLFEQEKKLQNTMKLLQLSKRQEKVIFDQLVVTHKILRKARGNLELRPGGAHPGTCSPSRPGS

[2] = molecular target: T1, GFP::CDK5RAP2 isoform B, full length, wild type (assembled into micron-scale scaffolds with anti-CM2 IgM) (human, UniProt Q96SN8-4 1-1814); experiment: partitioning into in vitro scaffolds (confocal fluorescence microscopy); 120 nM GFP::CDK5RAP2 assembled with anti-CM2 IgM, 50 nM mCherry, mCherry::HSET or mCherry::HSET(ΔIDR); 50 mM KCl, 25 mM HEPES; partition coefficient of mCherry signal; details: both partners purified
T1 construct: CDK5RAP2 (CEP215) isoform B, human, Protein ID Q96SN8-4, lacking a.a; 1576-1654 of the longest isoform; full length; In the assays the protein stood as micron-scale assemblies nucleated by an anti-CM2 IgM; also called CEP215; GFP::CDK5RAP2(WT); source: SF9 insect cells (baculovirus), purified (MBP selector beads, PreScission cleavage, Ni-NTA to remove the protease)
T1 sequence (Q96SN8 other isoform, or with tags, fused parts or gaps): as above

Sequence of human γ-tubulin ring complex tagged with blue fluorescent protein (mBFP::γ-TuRC) (P23258 whole entry, looked up, one chain of several): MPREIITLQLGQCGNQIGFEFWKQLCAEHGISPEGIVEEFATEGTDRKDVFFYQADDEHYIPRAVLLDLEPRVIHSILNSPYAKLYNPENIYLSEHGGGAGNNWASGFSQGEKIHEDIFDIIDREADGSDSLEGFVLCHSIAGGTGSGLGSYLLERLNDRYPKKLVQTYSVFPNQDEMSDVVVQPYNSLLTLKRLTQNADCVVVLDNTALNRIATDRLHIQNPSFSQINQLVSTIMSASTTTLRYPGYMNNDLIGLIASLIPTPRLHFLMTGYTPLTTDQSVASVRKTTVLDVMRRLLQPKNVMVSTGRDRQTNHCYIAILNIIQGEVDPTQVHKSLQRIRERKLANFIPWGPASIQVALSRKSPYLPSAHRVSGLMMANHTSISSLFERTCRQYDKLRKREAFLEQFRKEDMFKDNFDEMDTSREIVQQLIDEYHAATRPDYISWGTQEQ

Row | Molecule | fold more γ-TuRC recruited with mCherry::HSET than without [1] | binding result [2]
1 | human γ-tubulin ring complex tagged with blue fluorescent protein (mBFP::γ-TuRC) (from UniProt P23258 1-451) | 1.4 fold | 
2 | mCherry::HSET, full length, wild type (natural protein, human, UniProt Q9BW19 1-673, looked up, HSET (KifC1), kinesin-14 family motor, human, full length; also called KifC1; mCherry::HSET(WT); source: SF9 insect cells (baculovirus), purified (Ni-NTA)) MDPQRSPLLEVKGNIELKRPLIKAPSQLPLSGSRLKRRPDQMEDGLEPEKKRTRGLGATTKITTSHPRVPSLTTVPQTQGQTTAQKVSKKTGPRCSTAIATGLKNQKPVPAVPVQKSGTSGVPPMAGGKKPSKRPAWDLKGQLCDLNAELKRCRERTQTLDQENQQLQDQLRDAQQQVKALGTERTTLEGHLAKVQAQAEQGQQELKNLRACVLELEERLSTQEGLVQELQKKQVELQEERRGLMSQLEEKERRLQTSEAALSSSQAEVASLRQETVAQAALLTEREERLHGLEMERRRLHNQLQELKGNIRVFCRVRPVLPGEPTPPPGLLLFPSGPGGPSDPPTRLSLSRSDERRGTLSGAPAPPTRHDFSFDRVFPPGSGQDEVFEEIAMLVQSALDGYPVCIFAYGQTGSGKTFTMEGGPGGDPQLEGLIPRALRHLFSVAQELSGQGWTYSFVASYVEIYNETVRDLLATGTRKGQGGECEIRRAGPGSEELTVTNARYVPVSCEKEVDALLHLARQNRAVARTAQNERSSRSHSVFQLQISGEHSSRGLQCGAPLSLVDLAGSERLDPGLALGPGERERLRETQAINSSLSTLGLVIMALSNKESHVPYRNSKLTYLLQNSLGGSAKMLMFVNISPLEENVSESLNSLRFASKVNQCVIGTAQANRK |  | binds
